Assay results as given in patent US20070265201A1, “INHIBITORS OF IN[…] TRA[…] FROM HCMV PROTEIN IE2” (priority 2005, published 2007).

Tested on: C/EBPβ
Test: Specificity control: C/EBPβ expression by western blot of transfected HeLa-S3 lysates
Format: cell-based
Details: HeLa-S3 cell lysates, FIG. 4C
Method: FIGS. 4A-4D. […] FIG. 4D is another specificity control showing that a control GFP expression vector was not affected by either IE2 291-343 or IE2 291-364. HeLa-S3 cells were transfected with both a GFP expression vector and cotransfected with either E2 291-343 or IE 291-364 expression vectors and GFP expression analyzed 24 hours later by a fluorescence activated cell sorter.
Because the IE2 291-364 region was previously mapped as one of three TBP binding sites on IE2, it was possible that the inhibitory function was due to interaction with TBP. To exclude this possibility, the expression of two other genes that contain TATA boxes in their promoters were investigated. First, an observed the expression of C/EBPβ from the expression vector by western blot (FIG. 4C) was conducted. […] Second, His-tagged inhibitors were cotransfected with ev GFP and the geometric mean brightness of transfected cells measured by flow cytometry (FIG. 4D). […] It is believed that the basis for the interaction is localized to residues 315-328 of the IE2 molecule because a variant of IE2 291-364 missing the 315-328 region (delA) lacks binding to Spi-1 ETS domain in a GST fusion pull-down assay (FIG. 5).

B1: GFP 291-364 (protein)
chain: SSHHGRGGFGGAASSSLLSCGHQSSGGASTGPRKKKSKRISELDNEKVRNIMKDKNTPFCTPNVQTRRGRVKID
modifications: left off: large carriers
effect on expression of C/EBPβ protein (western blot): no reduction
